Data taken from patent US20250002610A1 (Genmab, published 2025).
Where a chain is given by its changes, count along the chain named.

Columns and labels:
[1] = target: T1, human DR4 (Death Receptor 4), cell surface expressed on human tumor cell lines (human, UniProt O00220 24-468); test: flow cytometry, A549 cells, n = 3
T1 construct: also called TNFRSF10A; TRAIL-R1
T1 sequence: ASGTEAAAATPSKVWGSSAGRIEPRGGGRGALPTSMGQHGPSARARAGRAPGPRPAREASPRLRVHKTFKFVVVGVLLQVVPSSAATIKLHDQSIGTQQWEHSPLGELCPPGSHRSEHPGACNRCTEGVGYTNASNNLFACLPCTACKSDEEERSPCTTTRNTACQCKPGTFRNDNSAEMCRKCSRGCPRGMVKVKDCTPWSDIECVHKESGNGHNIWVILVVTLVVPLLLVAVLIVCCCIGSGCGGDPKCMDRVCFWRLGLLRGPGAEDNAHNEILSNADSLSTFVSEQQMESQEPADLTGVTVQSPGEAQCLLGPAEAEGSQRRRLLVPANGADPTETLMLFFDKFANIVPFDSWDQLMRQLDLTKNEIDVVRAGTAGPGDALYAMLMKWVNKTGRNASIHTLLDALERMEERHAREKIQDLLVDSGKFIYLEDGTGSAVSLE

[2] = target: T1, human DR4 (Death Receptor 4), cell …; test: flow cytometry, PANC-1 cells, n = 3
[3] = target: T1, human DR4 (Death Receptor 4), cell …; test: flow cytometry, MDA-MB-231 cells, N = 1
[4] = target: T2, human FAPα (Fibroblast activation protein alpha), cell surface expressed (human, UniProt Q12884 1-760); test: flow cytometry, human lung fibroblasts, n = 2
T2 construct: Endogenous on human lung fibroblasts and CAFs
T2 sequence: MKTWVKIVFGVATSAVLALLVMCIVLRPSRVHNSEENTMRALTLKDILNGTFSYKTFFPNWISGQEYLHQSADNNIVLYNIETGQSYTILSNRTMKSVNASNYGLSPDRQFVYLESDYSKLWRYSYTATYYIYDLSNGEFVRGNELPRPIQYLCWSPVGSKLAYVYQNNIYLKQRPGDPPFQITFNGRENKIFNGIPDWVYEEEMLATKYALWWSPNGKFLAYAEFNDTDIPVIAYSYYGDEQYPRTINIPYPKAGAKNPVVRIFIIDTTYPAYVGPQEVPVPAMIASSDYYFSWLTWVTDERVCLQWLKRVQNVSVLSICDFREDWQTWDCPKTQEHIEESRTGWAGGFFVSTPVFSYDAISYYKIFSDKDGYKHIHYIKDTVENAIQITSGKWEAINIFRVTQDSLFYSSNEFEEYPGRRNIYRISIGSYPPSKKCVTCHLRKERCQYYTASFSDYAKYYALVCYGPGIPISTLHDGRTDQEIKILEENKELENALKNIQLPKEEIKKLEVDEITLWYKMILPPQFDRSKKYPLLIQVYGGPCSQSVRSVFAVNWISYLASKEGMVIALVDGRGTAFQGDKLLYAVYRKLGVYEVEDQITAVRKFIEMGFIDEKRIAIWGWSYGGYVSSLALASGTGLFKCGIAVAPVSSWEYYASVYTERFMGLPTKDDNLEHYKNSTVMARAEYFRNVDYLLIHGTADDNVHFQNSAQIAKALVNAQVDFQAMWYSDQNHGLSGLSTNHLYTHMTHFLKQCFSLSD
Description: Binding of bispecific or monoclonal antibodies carrying the anti-FAPα arm derived from IgG1-FAPα-FERL (BisG1-FAPα-FERL/DR4-FERR, BisG1-FAPα-FERL/b12-FERR, and IgG1-FAPα-FERL) to cell surface expressed human FAPα was analyzed by flow cytometry using human lung fibroblasts and CAFs, which endogenously express FAPα. BisG1-b12-FERL/b12-FERR was used as negative control.
Human lung fibroblasts and CAFs (50,000 cells/well) were seeded in 96-Well round bottom plates (Greiner Bio-one, Cat #650101). Antibody dilutions were prepared using fluorescence-activated cell sorting (FACS) buffer, consisting of phosphate buffer saline (PBS, Lonza, Cat #BE17-517Q)+1% Bovine Serum Albumin (BSA, Roche, Cat #10735086001)+0.02% Sodium Azide (Bio-World, Cat #41920044-3). Plates were centrifuged, supernatant was removed, cells were resuspended in 50 μL of human Fc Block (BD, Cat #564220, diluted 1:100 in FACS buffer) and 50 μL of viability stain TO-PRO-3 Iodide (Thermo Fisher, Cat #T3605, diluted 1: 25,000 in FACS buffer), and incubated for 15 min at 4° C. Plates were washed three times with FACS buffer. Plates were centrifuged, supernatant was removed, cells were resuspended in 50 μL of antibody dilutions (concentration range 90-0.0005 μg/mL, three-fold dilution steps using FACS buffer) of BisG1-FAPα-FERL/DR4-FERR, BisG1-FAPα-FERL/b12-FERR, BisG1-b12-FERL/b12-FERR (top six concentrations only for CAFs culture) or IgG1-FAPα-FERL (top four concentrations only for CAFs culture) and incubated for 30 min at 4° C. Cells were washed three times with FACS buffer and resuspended in 50 μL of Fluorescein isothiocyanate (FITC)-labeled polyclonal antibody goat anti-mouse IgG1 (Jackson Immuno Research, Cat #109-096-097, diluted 1:100 in FACS buffer). […] Antibody binding to viable cells (TO-PRO-3 negative) was analyzed by flow cytometry on a FACSCelesta™ (BD biosciences) and data were processed using FlowJo_v10.8.1 (FlowJo LLC). Geomean fluorescence intensity, gMFI, was determined and visualized using GraphPad Prism.

B1: BisG1-FAPα-FERL/DR4-FERR (bispecific antibody, human IgG1, kappa, lambda)
heavy 1: EVQLLESGGGLVQPGGSPRLSCEASGFTFSSYALSWVRQAPGKGLEWVSAISGSGGGRYYADSVKGRFTISRDNSKNTLFLQMNSLRAEDTAVYYCAKEGYSSSGTYWDHWGQGTLVTVSSASTKGPSVFPLAPSSKSTSGGTAALGCLVKDYFPEPVTVSWNSGALTSGVHTFPAVLQSSGLYSLSSVVTVPSSSLGTQTYICNVNHKPSNTKVDKRVEPKSCDKTHTCPPCPAPEFERGPSVFLFPPKPKDTLMISRTPEVTCVVVDVSHEDPEVKFNWYVDGVEVHNAKTKPREEQYNSTYRVVSVLTVLHQDWLNGKEYKCKVSNKALPAPIEKTISKAKGQPREPQVYTLPPSREEMTKNQVSLTCLVKGFYPSDIAVEWESNGQPENNYKTTPPVLDSDGSFLLYSKLTVDKSRWQQGNVFSCSVMHEALHNHYTQKSLSLSPG
light 1: AIQMTQSPSSVSASVGDRVTITCRASQGVSSWLAWYQQKPGRAPKLLIYVASTLQSGVPSRFSGSGSGTDFTLTINSLQPEDFATYYCQQANSFPPTFGQGTRLEMKRTVAAPSVFIFPPSDEQLKSGTASVVCLLNNFYPREAKVQWKVDNALQSGNSQESVTEQDSKDSTYSLSSTLTLSKADYEKHKVYACEVTHQGLSSPVTKSFNRGEC
heavy 2: QVQLQESGPGLVKPSGTLSLTCAVSGGSISSYSWWSWIRQPPGKGLEWIGELYHSGSTNYNPSLKSRVTISVDKSKNQFSLKLRSVTAADTAVYYCVRGVATIDYWGQGTLVTVSSASTKGPSVFPLAPSSKSTSGGTAALGCLVKDYFPEPVTVSWNSGALTSGVHTFPAVLQSSGLYSLSSVVTVPSSSLGTQTYICNVNHKPSNTKVDKRVEPKSCDKTHTCPPCPAPEFERGPSVFLFPPKPKDTLMISRTPEVTCVVVDVSHEDPEVKFNWYVDGVEVHNAKTKPREEQYNSTYRVVSVLTVLHQDWLNGKEYKCKVSNKALPAPIEKTISKAKGQPREPQVYTLPPSREEMTKNQVSLTCLVKGFYPSDIAVEWESNGQPENNYKTTPPVLDSDGSFFLYSRLTVDKSRWQQGNVFSCSVMHEALHNHYTQKSLSLSPG
light 2: QSALTQPPSASGSPGQSVTISCTGTSSDVGGYNFVSWYQQDPGKAPKLLIYEVTKRPSGVPDRFSGSKSGNTASLTVSGLQAEDEADYYCSSYAGSNNVMFGGGTKLTVLGQPKAAPSVTLFPPSSEELQANKATLVCLISDFYPGAVTVAWKADSSPVKAGVETTTPSKQSNNKYAASSYLSLTPEQWKSHRSYSCQVTHEGSTVEKTVAPTECS
notes: Human IgG1 bispecific made by controlled Fab-arm exchange of IgG1-FAPα-FERL and IgG1-DR4-FERR; monovalent for FAPα and for DR4; also called GEN1057
Question: How did the EC50 [1] turn out when B1 was run?
Answer: Its EC50 is 0.87 µg/mL.

Question: What about the EC50 [2] of the same binder?
Answer: The EC50 was 1.4 µg/mL.

Question: And the EC50 [3]?
Answer: Its EC50 is 0.71 µg/mL.

Question: What about the EC50 [4] of the same binder?
Answer: The EC50 was 0.047 µg/mL.

B2: BisG1-FAPα-FERL/b12-FERR (bispecific antibody, human IgG1, kappa)
heavy 1: B1 heavy 1
light 1: B1 light 1
heavy 2: QVQLVQSGAEVKKPGASVKVSCQASGYRFSNFVIHWVRQAPGQRFEWMGWINPYNGNKEFSAKFQDRVTFTADTSANTAYMELRSLRSADTAVYYCARVGPYSWDDSPQDNYYMDVWGKGTTVIVSSASTKGPSVFPLAPSSKSTSGGTAALGCLVKDYFPEPVTVSWNSGALTSGVHTFPAVLQSSGLYSLSSVVTVPSSSLGTQTYICNVNHKPSNTKVDKRVEPKSCDKTHTCPPCPAPEFERGPSVFLFPPKPKDTLMISRTPEVTCVVVDVSHEDPEVKFNWYVDGVEVHNAKTKPREEQYNSTYRVVSVLTVLHQDWLNGKEYKCKVSNKALPAPIEKTISKAKGQPREPQVYTLPPSREEMTKNQVSLTCLVKGFYPSDIAVEWESNGQPENNYKTTPPVLDSDGSFFLYSRLTVDKSRWQQGNVFSCSVMHEALHNHYTQKSLSLSPG
light 2: EIVLTQSPGTLSLSPGERATFSCRSSHSIRSRRVAWYQHKPGQAPRLVIHGVSNRASGISDRFSGSGSGTDFTLTITRVEPEDFALYYCQVYGASSYTFGQGTKLERKRTVAAPSVFIFPPSDEQLKSGTASVVCLLNNFYPREAKVQWKVDNALQSGNSQESVTEQDSKDSTYSLSSTLTLSKADYEKHKVYACEVTHQGLSSPVTKSFNRGEC
Question: Which EC50 [4] does the source give for B2 here?
Answer: The EC50 was 0.034 µg/mL.

B3: IgG1-FAPα-FERL (antibody)
heavy: B1 heavy 1
light: B1 light 1
notes: Bivalent monoclonal IgG1 kappa
Question: Which EC50 [4] does the source give for B3 here?
Answer: Its EC50 is 0.006 µg/mL.

B4: IgG1-DR4-FERR (antibody, V domains shown)
VH: QVQLQESGPGLVKPSGTLSLTCAVSGGSISSYSWWSWIRQPPGKGLEWIGELYHSGSTNYNPSLKSRVTISVDKSKNQFSLKLRSVTAADTAVYYCVRGVATIDYWGQGTLVTVSS
VL: QSALTQPPSASGSPGQSVTISCTGTSSDVGGYNFVSWYQQDPGKAPKLLIYEVTKRPSGVPDRFSGSKSGNTASLTVSGLQAEDEADYYCSSYAGSNNVMFGGGTKLTVLG
notes: Bivalent monoclonal IgG1 lambda
Question: B4 was tested. Which EC50 [1] did it give?
Answer: Its EC50 is 0.21 µg/mL.

Question: And the EC50 [2]?
Answer: Its EC50 is 0.39 µg/mL.

Question: And the EC50 [3]?
Answer: Its EC50 is 0.24 µg/mL.

B5: BisG1-b12-FERL/DR4-FERR (bispecific antibody, human IgG1, kappa, lambda)
heavy 1: B2 heavy 2 with F415L, R419K
light 1: B2 light 2
heavy 2: B1 heavy 2
light 2: B1 light 2
notes: Fab-arm exchange of IgG1-b12-FERL and IgG1-DR4-FERR; also called bsIgG1-ctrl-FERLxDR4-FERR
Question: With B5 as the binder, how does the EC50 [1] read?
Answer: The EC50 was 0.78 µg/mL.

Question: And the EC50 [2]?
Answer: Its EC50 is 1.44 µg/mL.

Question: What about the EC50 [3] of the same binder?
Answer: The EC50 was 0.39 µg/mL.

Question: And the “Max MFI (at 90 µg/mL)” value [3]?
Answer: The value was 7840 MFI.
